For this assay, the target named is hRIO2(1-321)Δ(131-146) (human) (UniProt Q9BVS4). In words: AUC.

Experimental findings from article doi:10.1101/553800 are described below.

In general, stoichiometry N refers to a count of units in the complex or per binding partner. Substance “hRIO2(1-321)Δ(131-146) (from UniProt Q9BVS4 1-321) (domain or fragment)” gave a percent dimer at 27 μM of over 20% and a stoichiometry N of 2.
